Data: PMC5816707

Experiments:
[1] = target: T1, TIAL1 (Homo sapiens (cDNA from HEK293 cells), UniProt Q01085 1-375); test: EMSA
T1 sequence: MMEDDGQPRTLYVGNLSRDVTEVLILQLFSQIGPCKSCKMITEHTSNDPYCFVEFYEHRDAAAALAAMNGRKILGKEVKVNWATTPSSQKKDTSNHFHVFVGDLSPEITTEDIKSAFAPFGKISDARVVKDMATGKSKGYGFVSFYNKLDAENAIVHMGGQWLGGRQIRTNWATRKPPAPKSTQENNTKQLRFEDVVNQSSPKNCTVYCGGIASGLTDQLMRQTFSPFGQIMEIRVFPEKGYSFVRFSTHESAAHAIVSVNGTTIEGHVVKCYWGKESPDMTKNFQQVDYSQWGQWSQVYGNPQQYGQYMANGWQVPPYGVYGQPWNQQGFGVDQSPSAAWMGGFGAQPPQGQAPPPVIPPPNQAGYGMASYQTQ

[2] = target: T2, TIA1 (Homo sapiens (cDNA from HEK293 cells), UniProt P31483 1-386); test: EMSA
T2 sequence: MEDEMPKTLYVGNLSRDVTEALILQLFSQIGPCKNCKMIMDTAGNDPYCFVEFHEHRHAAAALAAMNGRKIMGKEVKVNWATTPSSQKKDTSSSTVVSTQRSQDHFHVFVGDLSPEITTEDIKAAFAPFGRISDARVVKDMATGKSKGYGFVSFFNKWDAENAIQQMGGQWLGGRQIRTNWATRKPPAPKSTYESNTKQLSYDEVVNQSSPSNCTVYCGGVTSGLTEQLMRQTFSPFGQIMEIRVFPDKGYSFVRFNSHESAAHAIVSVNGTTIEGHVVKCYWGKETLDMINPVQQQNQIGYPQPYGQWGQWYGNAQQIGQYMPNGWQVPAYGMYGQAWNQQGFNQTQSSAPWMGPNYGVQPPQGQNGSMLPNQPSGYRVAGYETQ

## AAAAAAAAAAAAAAAAAA (ssRNA) [poly(A)18]
[1]
  binding result: no binding
[2]
  binding result: no binding
